Positions count from the first letter of the chain named. Names may count otherwise.
T1: human α-CGRP (Homo sapiens, UniProt P06881)
T1 sequence (P06881 83-119 limits assumed): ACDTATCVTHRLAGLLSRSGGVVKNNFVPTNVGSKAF

T2: human β-CGRP (Homo sapiens, UniProt P10092)
T2 construct: and
T2 sequence (P10092 82-118 limits assumed): T1 sequence (P06881 83-119 limits assumed) with D3N, V22M, N25S

T3: rat α-CGRP (Rattus norvegicus, UniProt P01256)
T3 sequence (P01256 83-119 limits assumed): T1 sequence (P06881 83-119 limits assumed) with A1S, D3N, N25D, K35E

T4: rat β-CGRP (Rattus norvegicus, UniProt P10093, R105S)
T4 sequence (P10093 89-125 R105S limits assumed): T1 sequence (P06881 83-119 limits assumed) with A1S, D3N, N25D

T5: α-rat CGRP (Rattus norvegicus, UniProt P01256)
T5 sequence (P01256 83-119 limits assumed): T1 sequence (P06881 83-119 limits assumed) with A1S, D3N, N25D, K35E

B1: G2: anti-rat CGRP mouse monoclonal antibody as described in Wong H C et al. Hybridoma 12:93-106, 1993; VH SEQ ID NO: 19, VL SEQ ID NO: 20 (antibody, V domains shown)
VH: EVQLQQSGPELVKPGASVKMSCKASGYTFTSSVMHWVKQKPGQGLEWIGYINPYNDGTKYNEKFKGKATLTSDKSSSTAYMELSSLTSEDSAVYYCAKGGNDGYWGQGTTLTVSS
VL: EIVLTQSPTTMAASPGEKITITCSASSSISSIYLHWYQQKPGFSPKVLIYRASNLASGVPARFSGSGSGTSYSLTIGTMEAEDVATYYCQQGSTIPFTFGSGTKLEIK
modifications: Synthetic polypeptide, Antibody G2 heavy chain variable region; Synthetic polypeptide, Antibody G2 light chain variable region
B2: M65: G1 variant: L1 R28N T30G; L2 G50A L56I; H2 E54K A57C; HC-FW3 L99T A100V (antibody, chains of the INN, looked up, variant L:R28N L:T30G L:G50A L:L56I H:E54K H:A57C H:L99T H:A100V, V domains shown)
VH: EVQLVESGGGLVQPGGSLRLSCAASGFTFSNYWISWVRQAPGKGLEWVAEIRSKSDCSATHYAEAVKGRFTISRDNAKNSLYLQMNSLRAEDTAVYYCTVYFDYGLAIQNYWGQGTLVTVSS
VL: EIVLTQSPATLSLSPGERATLSCKASKNVGTYVSWYQQKPGQAPRLLIYAASNRYIGIPARFSGSGSGTDFTLTISSLEPEDFAVYYCSQSYNYPYTFGQGTKLEIK
B3: M67: G1 variant: L1 R28N T30G; L2 L56I; H2 E54K A57F; HC-FW3 L99T A100V (antibody, chains of the INN, looked up, variant L:R28N L:T30G L:L56I H:E54K H:A57F H:L99T H:A100V, V domains shown)
VH: B2 VH with C57F
VL: B2 VL with A50G
B4: M69: G1 variant: L1 R28N T30G; L2 L56I; H2 E54K A57N S58E; HC-FW3 L99T A100V (antibody, chains of the INN, looked up, variant L:R28N L:T30G L:L56I H:E54K H:A57N H:S58E H:L99T H:A100V, V domains shown)
VH: B2 VH with C57N, S58E
VL: B2 VL with A50G
B5: M73: G1 variant: L1 R28N T30G; L2 L56S; H2 E54K A57N S58Y E64D; HC-FW3 L99T A100V (antibody, chains of the INN, looked up, variant L:R28N L:T30G L:L56S H:E54K H:A57N H:S58Y H:E64D H:L99T H:A100V, V domains shown)
VH: B2 VH with C57N, S58Y, E64D
VL: B2 VL with A50G, I56S
B6: M74: G1 variant: L1 R28N T30G; L2 L56S; H2 E54K A57S; HC-FW3 L99T A100V (antibody, chains of the INN, looked up, variant L:R28N L:T30G L:L56S H:E54K H:A57S H:L99T H:A100V, V domains shown)
VH: B2 VH with C57S
VL: B2 VL with A50G, I56S
B7: M75: G1 variant: L1 R28N T30G; L2 L56S; H2 E54K A57V; HC-FW3 L99T A100V (antibody, chains of the INN, looked up, variant L:R28N L:T30G L:L56S H:E54K H:A57V H:L99T H:A100V, V domains shown)
VH: B2 VH with C57V
VL: B2 VL with A50G, I56S
B8: M77: G1 variant: L1 R28N T30S; L2 G50A L56T; H2 E54K A57D; HC-FW3 L99T A100V (antibody, chains of the INN, looked up, variant L:R28N L:T30S L:G50A L:L56T H:E54K H:A57D H:L99T H:A100V, V domains shown)
VH: B2 VH with C57D
VL: B2 VL with G30S, I56T
B9: M78: G1 variant: L1 R28N T30S; L2 G50A L56T; H2 E54K A57N S58T; HC-FW3 L99T A100V (antibody, chains of the INN, looked up, variant L:R28N L:T30S L:G50A L:L56T H:E54K H:A57N H:S58T H:L99T H:A100V, V domains shown)
VH: B2 VH with C57N, S58T
VL: B2 VL with G30S, I56T
B10: M84: G1 variant: L1 R28N T30V; L2 A51H L56T; H2 E54N A57N; HC-FW3 L99T A100V (antibody, chains of the INN, looked up, variant L:R28N L:T30V L:A51H L:L56T H:E54N H:A57N H:L99T H:A100V, V domains shown)
VH: B2 VH with K54N, C57N
VL: B2 VL with G30V, A50G, A51H, I56T
B11: M23: G1 variant: L1 R28G; HC-FW3 L99T A100V (antibody, chains of the INN, looked up, variant L:R28G H:L99T H:A100V, V domains shown)
VH: B2 VH with K54E, C57A
VL: B2 VL with N28G, G30T, A50G, I56L
B12: M24: G1 variant: L1 R28L; HC-FW3 L99T A100V (antibody, chains of the INN, looked up, variant L:R28L H:L99T H:A100V, V domains shown)
VH: B2 VH with K54E, C57A
VL: B2 VL with N28L, G30T, A50G, I56L
B13: M26: G1 variant: L1 R28N; H2 A57G; HC-FW3 L99T A100V (antibody, chains of the INN, looked up, variant L:R28N H:A57G H:L99T H:A100V, V domains shown)
VH: B2 VH with K54E, C57G
VL: B2 VL with G30T, A50G, I56L
B14: M27: G1 variant: L1 R28N T30A; HC-FW3 L99T A100V (antibody, chains of the INN, looked up, variant L:R28N L:T30A H:L99T H:A100V, V domains shown)
VH: B2 VH with K54E, C57A
VL: B2 VL with G30A, A50G, I56L
B15: M28: G1 variant: L1 R28N T30D; H2 E54R A57N; HC-FW3 L99T A100V (antibody, chains of the INN, looked up, variant L:R28N L:T30D H:E54R H:A57N H:L99T H:A100V, V domains shown)
VH: B2 VH with K54R, C57N
VL: B2 VL with G30D, A50G, I56L
B16: M31: G1 variant: L1 R28N T30G; H2 E54K A57G; HC-FW3 L99T A100V (antibody, chains of the INN, looked up, variant L:R28N L:T30G H:E54K H:A57G H:L99T H:A100V, V domains shown)
VH: B2 VH with C57G
VL: B2 VL with A50G, I56L
B17: M37: G1 variant: L1 R28N T30S; H2 A57G; HC-FW3 L99T A100V (antibody, chains of the INN, looked up, variant L:R28N L:T30S H:A57G H:L99T H:A100V, V domains shown)
VH: B2 VH with K54E, C57G
VL: B2 VL with G30S, A50G, I56L
B18: M38: G1 variant: L1 R28N T30W; HC-FW3 L99T A100V (antibody, chains of the INN, looked up, variant L:R28N L:T30W H:L99T H:A100V, V domains shown)
VH: B2 VH with K54E, C57A
VL: B2 VL with G30W, A50G, I56L

Biological target: T1, human α-CGRP
Assay: Biacore interaction analysis of Fab fragments, N-biotin α-human/cyno CGRP on chip
Type: binding
Conditions: 25° C.
Method: (§1) Interaction analysis was conducted at 25° C. and at 37° C. on a Biacore 3000™ system equipped with streptavidin-coated (SA) sensor chips (Biacore AB, Uppsala, Sweden) using standard Biacore running buffers (HBS-P or HBS-EP). N-LC-biotinylated human and rat α- and β-CGRPs were captured on individual flow cells at low levels (typically 100 response units) to provide the reaction surfaces, while an unmodified flow cell served as a reference channel. Purified Fab fragments of antibodies G1 and G2 were generated. Typically, Fabs were prepared as a two-fold serial dilution using 0.5 μM as the top concentration and injected for 1-min at 100 μl/min allowing up to two hours for the dissociation time. Surfaces were regenerated with a mixture of 50% v/v ethanol+25 mM NaOH for G1 Fab and 2:1 v/v Pierce Gentle Elution Buffer/4M NaCl for G2 Fab. […] The binding responses were double-referenced and fit globally to a simple model using BiaEvaluation v. 4.0 software. Affinities were deduced from the quotient of the kinetic rate constants (KD=koff/kon).
(§2) As such, the offrate (koff) cannot be measured accurately unless the dissociation phase is monitored for a very long time. As a general rule-of-thumb, the binding response decays at least 5% over the allowed dissociation time for the report of an accurate offrate. However, monitoring long dissociation times on the Biacore is hindered by baseline drift, which is particularly challenging when working at the low surface capacities required for kinetic analyses. In this study, the dissociation phase was followed for two hours over the α-CGRPs but only 20 mins over the β-CGRPs. As a result, the offrates for β-CGRPs cannot be resolved as accurately as those for α-CGRPs.

Molecule | Kd | koff | kon
B1 | 19 nM | 0.00115 s⁻¹ | 60300 M⁻¹ s⁻¹

Same assay, conditions: 37° C.

Molecule | koff | kon
B1 | 0.0039 s⁻¹ | 93000 M⁻¹ s⁻¹

Biological target: T2, human β-CGRP
Assay: Biacore interaction analysis of Fab fragments, N-biotin β-human/cyno CGRP on chip
Type: binding
Conditions: β-human CGRP, 25° C.
Method: as §1, §2

Molecule | Kd | koff | kon
B1 | 20 nM | 0.00162 s⁻¹ | 81400 M⁻¹ s⁻¹

Biological target: T3, rat α-CGRP
Assay: Biacore interaction analysis of Fab fragments, N-biotin α-rat CGRP on chip
Type: binding
Conditions: 25° C.
Method: as §1, §2

Molecule | koff | kon
B1 | 0.000214 s⁻¹ | 231000 M⁻¹ s⁻¹

Same assay, conditions: 37° C.

Molecule | koff | kon
B1 | 0.0017 s⁻¹ | 500000 M⁻¹ s⁻¹

Biological target: T4, rat β-CGRP
Assay: Biacore interaction analysis of Fab fragments, N-biotin β-rat CGRP on chip
Type: binding
Conditions: reverse orientation assay format (data not shown)
Method: as §1, §2
The results for antibody G2 are expressed in Table 2.

Molecule | binding characteristics to β-rat CGRP
B1 | comparable binding characteristics to α- and β-human CGRPs

Biological target: T5, α-rat CGRP
Assay: not given
Conditions: Table 6 reproduced from WO2007/054809; cited from earlier work

Molecule | Kd
B2 | 226 nM
B3 | 95 nM
B4 | 101 nM
B5 | 167 nM
B6 | 335 nM
B7 | 1040 nM
B8 | 794 nM
B9 | 9280 nM
B10 | 978 nM
B11 | 44.4 nM
B12 | 57.8 nM
B13 | 51.3 nM
B14 | 189 nM
B15 | 69.4 nM
B16 | 201 nM
B17 | 80.6 nM
B18 | 284 nM

Biological target: T1, human α-CGRP
Assay: not given
Conditions: Table 6 reproduced from WO2007/054809; cited from earlier work

Molecule | Kd
B2 | 5.02 nM
B3 | 5.13 nM
B4 | 4.58 nM
B5 | 1.59 nM
B6 | 3.73 nM
B7 | 7.25 nM
B8 | 2.98 nM
B9 | 8.19 nM
B10 | 6.75 nM
B11 | 0.81 nM
B12 | 0.93 nM
B13 | 0.93 nM
B14 | 2.23 nM
B15 | 0.62 nM
B16 | 2.17 nM
B17 | 1.41 nM
B18 | 1.36 nM

Reference: patent US8623366B2, “Methods for treating visceral pain by administering antagonist antibodies directed against calcitonin gene-related peptide” (Labrys Biologics, Inc., priority 2009, dated 2014)
